Measurements published in publication PMC3329130 (Biochemistry, 2012).
Numbering of substitutions follows the chain as printed. In names and notes the source's numbering stands.

How the values were obtained:
[1] = molecular target: yeast Sac1 phosphatase domain (amino acids 1-511) (yeast) (UniProt P32368); experiment: AUC
[2] = molecular target: T1, Sac1 (phosphatase domain of yeast Sac1, residues 1-511) (Saccharomyces cerevisiae, UniProt P32368); experiment: malachite green phosphate release, PI; assay type: biochemical; conditions: fixed PI(4)P, pH 6.8, room temperature; allosteric activator
T1 sequence (P32368 1-511): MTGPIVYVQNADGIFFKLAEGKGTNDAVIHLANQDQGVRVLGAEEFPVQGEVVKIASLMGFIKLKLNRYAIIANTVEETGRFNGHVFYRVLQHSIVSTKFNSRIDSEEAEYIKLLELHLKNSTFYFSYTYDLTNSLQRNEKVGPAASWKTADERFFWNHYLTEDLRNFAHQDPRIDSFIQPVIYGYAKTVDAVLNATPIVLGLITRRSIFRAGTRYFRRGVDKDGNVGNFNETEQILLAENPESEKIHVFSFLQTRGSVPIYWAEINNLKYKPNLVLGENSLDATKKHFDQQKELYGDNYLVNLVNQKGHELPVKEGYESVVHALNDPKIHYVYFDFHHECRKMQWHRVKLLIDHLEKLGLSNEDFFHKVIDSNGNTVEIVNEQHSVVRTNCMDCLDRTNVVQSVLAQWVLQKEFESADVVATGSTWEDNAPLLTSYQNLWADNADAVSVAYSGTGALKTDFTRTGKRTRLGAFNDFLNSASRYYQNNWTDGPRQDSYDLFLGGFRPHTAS

purified protein = substrate: CCCCCCCC(=O)OC[C@H](COP(=O)(O)O[C@H]1[C@H](O)[C@@H](O)[C@H](OP(=O)(O)O)[C@@H](O)[C@H]1O)OC(=O)CCCCCCC; experiment: purified protein; conditions: no activator; sigmoidal, Hill coefficient 3.6 ± 0.3; buffer as for wild type

## yeast Sac1 phosphatase domain (amino acids 1-511) (from UniProt P32368 1-511) (domain or fragment)
[1]
  percent of the protein in the dimeric form: 20%
  stoichiometry N: 2

## CCCCCCCC(=O)OC[C@H](COP(=O)(O)OC[C@H](N)C(=O)O)OC(=O)CCCCCCC [diC8 PS]
[2]
  activation: Sac1 is strongly activated by phosphatidylserine (PS)

B1: Sac1 (phosphatase domain of yeast Sac1, residues 1-511) (Saccharomyces cerevisiae S288C; R207Q) (protein)
chain: T1 sequence (P32368 1-511) with R207Q
Purified protein
  K0.5: 46 ± 5 µM
